Molecular target: T1, Recombinant Myo2 CBD, Myo2(1,131–1,574) (S. cerevisiae, UniProt P19524 1131-1574)
T1 sequence: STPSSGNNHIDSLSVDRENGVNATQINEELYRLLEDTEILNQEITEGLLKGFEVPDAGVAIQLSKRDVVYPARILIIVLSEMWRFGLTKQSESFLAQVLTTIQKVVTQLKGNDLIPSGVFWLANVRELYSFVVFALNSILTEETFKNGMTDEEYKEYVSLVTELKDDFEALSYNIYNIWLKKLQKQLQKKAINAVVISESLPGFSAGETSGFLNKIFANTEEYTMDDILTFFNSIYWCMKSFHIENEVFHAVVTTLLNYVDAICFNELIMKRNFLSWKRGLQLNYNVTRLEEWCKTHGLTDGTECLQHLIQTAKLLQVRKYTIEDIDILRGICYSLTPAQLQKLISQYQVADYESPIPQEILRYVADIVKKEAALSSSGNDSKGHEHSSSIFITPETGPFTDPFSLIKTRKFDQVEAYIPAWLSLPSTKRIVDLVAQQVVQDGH
Experiment: SEC

PNEAPNDSPQSQSTRSSLGSFQPRPLKIIERQRLCMVTPSKPPKKS (domain or fragment) [MBP-Vac17(112–157)]
binding result: binds

Source: PMC3392941 (The Journal of Cell Biology, 2012)
